According to PMC2267168, “Competition between Delta and the Abruptex domain of Notch” (BMC Developmental Biology, 2008):
Residue numbers refer to the chain shown, from its start. Names may count otherwise. Like-named read-outs stand apart in the source and are kept apart here. Blank lines part the entries; values can stand above or below the binder they belong to.

Experiments:
N21-30:Fc [1] = target: T1, N21-30:Fc (Drosophila, UniProt P07207 827-1224); assay: ELISA; as the plate assay, at pH 7.4 in citric acid/Na2HPO4 or Tris maleate/NaOH buffer in place of Tris pH 8.0; conditions: both partners purified
T1 construct: also called Abruptex region; EGF repeat 21-30 region of Notch; source: Drosophila Schneider cells, transfected, secreted; purified from conditioned medium (Protein A beads); not shown: Fc (human IgG), C-terminal, kept
T1 sequence (looked up): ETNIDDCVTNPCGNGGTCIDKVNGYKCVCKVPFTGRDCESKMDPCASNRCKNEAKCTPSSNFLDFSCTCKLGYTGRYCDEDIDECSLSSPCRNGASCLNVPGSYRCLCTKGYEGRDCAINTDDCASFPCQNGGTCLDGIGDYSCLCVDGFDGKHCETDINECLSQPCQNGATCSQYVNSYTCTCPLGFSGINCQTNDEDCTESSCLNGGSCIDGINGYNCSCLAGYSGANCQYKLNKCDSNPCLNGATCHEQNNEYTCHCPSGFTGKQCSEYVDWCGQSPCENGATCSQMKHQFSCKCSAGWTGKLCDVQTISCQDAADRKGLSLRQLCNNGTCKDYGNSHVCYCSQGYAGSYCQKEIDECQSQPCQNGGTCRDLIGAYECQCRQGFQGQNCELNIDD

N11-14:V5:His [2] = target: T2, N11-14:V5:His (Drosophila, UniProt P07207 447-605); assay: ELISA
T2 chain: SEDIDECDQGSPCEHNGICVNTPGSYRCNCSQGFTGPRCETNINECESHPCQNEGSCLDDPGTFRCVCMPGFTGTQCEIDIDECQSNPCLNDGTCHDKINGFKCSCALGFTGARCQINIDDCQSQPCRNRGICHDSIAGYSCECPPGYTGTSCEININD

N11-20:V5:His [3] = target: T3, N11-20:V5:His (Drosophila, UniProt P07207 447-832); assay: ELISA
T3 chain: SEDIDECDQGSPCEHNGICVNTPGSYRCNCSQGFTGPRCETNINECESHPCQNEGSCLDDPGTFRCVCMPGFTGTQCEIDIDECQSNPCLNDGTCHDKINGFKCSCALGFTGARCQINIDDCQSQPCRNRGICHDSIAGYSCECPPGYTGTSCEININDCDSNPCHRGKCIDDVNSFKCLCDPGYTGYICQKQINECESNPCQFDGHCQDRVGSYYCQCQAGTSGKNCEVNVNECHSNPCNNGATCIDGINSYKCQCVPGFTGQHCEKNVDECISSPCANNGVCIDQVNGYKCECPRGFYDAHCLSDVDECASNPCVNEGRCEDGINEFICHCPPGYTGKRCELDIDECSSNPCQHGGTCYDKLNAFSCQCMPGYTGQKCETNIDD

N11-20:V5:His [4] = target: T3, N11-20:V5:His; assay: ELISA
N11-14:V5:His [5] = target: T2, N11-14:V5:His; assay: ELISA
N11-14spl:V5:His [6] = target: T4, N11-14spl:V5:His (Drosophila, UniProt P07207 447-605, I578T); assay: ELISA
T4 sequence: T2 chain with I132T

N11-20:V5:His [7] = target: T3, N11-20:V5:His; assay: ELISA; pH 5.4
N11-20:V5:His [8] = target: T3, N11-20:V5:His; assay: ELISA; pH 7.4
N11-14:V5:His [9] = target: T2, N11-14:V5:His; assay: ELISA
N11-14spl:V5:His [10] = target: T4, N11-14spl:V5:His; assay: ELISA; remark: listed apart in the source
N11-20:V5:His [11] = target: T3, N11-20:V5:His; assay: ELISA; 200 ng His-tagged protein adsorbed to a 96-well plate at 4°C overnight, blocked with 3% BSA; purified Fc fusion added in TBS (10 mM Tris-Cl pH 8.0, 150 mM NaCl, 1 mM CaCl2) for 2 h; detected with HRP anti-human IgG; half-maximal binding ('Kd') fitted with Prizm, said not to be a true Kd
N21-30:Fc [12] = target: T1, N21-30:Fc; assay: ELISA; competition: 10 ng (2.74 nM) N21-30:Fc or 100 ng (23.2 nM) Dl:Fc on adsorbed N11-20, with increasing amounts of soluble Dl:V5:His or N21-30:V5:His; conditions: both partners purified
N21-30:V5:His = target: T5, N21-30:V5:His (Drosophila, UniProt P07207 827-1224); assay: as above; conditions: both partners purified
T5 construct: source: Drosophila Schneider cells, transfected, secreted; purified from conditioned medium (ProBond resin)
T5 sequence (looked up): T1 sequence (looked up)

binding result (N21-30:Fc [1]): binds
B1: N11-14:V5:His (domain or fragment, Drosophila, UniProt P07207 447-605, looked up)
chain: T2 chain
notes: also called N11-4:V5:His; EGF repeats 11-14; source: Drosophila Schneider cells, transfected, secreted; purified from conditioned medium (ProBond resin)

binding result (N21-30:Fc [1]): binds
B2: N11-14spl:V5:His (domain or fragment, Drosophila, UniProt P07207 447-605, looked up)
chain: T2 chain with I132T
notes: Notch, Drosophila, EGF repeats 11-14 with the I578T change of the split (spl) allele in EGF repeat 14; limits as N11-14, Ser447 to Asp605; also called split mutant; source: Drosophila Schneider cells, transfected, secreted; purified from conditioned medium (ProBond resin)

Kd (N11-14:V5:His [2]): 2.81 nM
B3: N26-30:Fc (Fc fusion)
chain: QTNDEDCTESSCLNGGSCIDGINGYNCSCLAGYSGANCQYKLNKCDSNPCLNGATCHEQNNEYTCHCPSGFTGKQCSEYVDWCGQSPCENGATCSQMKHQFSCKCSAGWTGKLCDVQTISCQDAADRKGLSLRQLCNNGTCKDYGNSHVCYCSQGYAGSYCQKEIDECQSQPCQNGGTCRDLIGAYECQCRQGFQGQNCELNIDD
modifications: Fc-dimerised (Fc left out); secreted from S2 cells, O-fucosylation predicted. The forward primer (Q-T-N-D-E-D-C) overlaps the reverse primer ending at Asp1025, so the printed Gln1000 is Gln1020

Kd (N11-20:V5:His [3]): 27.5 nM | Kd (N11-14:V5:His [2]): 5.42 nM | Kd (N11-20:V5:His [4]): 4.5 nM | Kd (N11-14:V5:His [5]): 21.3 nM | Kd (N11-14spl:V5:His [6]): 28.9 nM | Kd (N11-20:V5:His [7]): 34 nM | Kd (N11-20:V5:His [8]): 16.4 nM
B4: N21-30:Fc (Fc fusion)
chain: T1 sequence (looked up)

Kd (N11-14:V5:His [2]): 12.6 nM
B5: N22-27:Fc (Fc fusion)
chain: KMDPCASNRCKNEAKCTPSSNFLDFSCTCKLGYTGRYCDEDIDECSLSSPCRNGASCLNVPGSYRCLCTKGYEGRDCAINTDDCASFPCQNGGTCLDGIGDYSCLCVDGFDGKHCETDINECLSQPCQNGATCSQYVNSYTCTCPLGFSGINCQTNDEDCTESSCLNGGSCIDGINGYNCSCLAGYSGANCQYKLNKCDSNPCLNGATCHEQNNEYTCHCPSGFTGKQCS

Kd (N11-14:V5:His [9]): 16.6 nM | Kd (N11-14spl:V5:His [10]): 23.4 nM | Kd (N11-20:V5:His [3]): 25.1 nM | Kd (N11-20:V5:His [7]): 4.58 nM | Kd (N11-20:V5:His [8]): 29.8 nM | EC50 (N11-20:V5:His [11]): 1.87 nM
B6: Dl:Fc (Fc fusion)
chain: QVHSSGSFELRLKYFSNDHGRDNEGRCCSGESDGATGKCLGSCKTRFRVCLKHYQATIDTTSQCTYGDVITPILGENSVNLTDAQRFQNKGFTNPIQFPFSFSWPGTFSLIVEAWHDTNNSGNARTNKLLIQRLLVQQVLEVSSEWKTNKSESQYTSLEYDFRVTCDLNYYGSGCAKFCRPRDDSFGHSTCSETGEIICLTGWQGDYCHIPKCAKGCEHGHCDKPNQCVCQLGWKGALCNECVLEPNCIHGTCNKPWTCICNEGWGGLYCNQDLNYCTNHRPCKNGGTCFNTGEGLYTCKCAPGYSGDDCENEIYSCDADVNPCQNGGTCIDEPHTKTGYKCHCANGWSGKMCEEKVLTCSDKPCHQGICRNVRPGLGSKGQGYQCECPIGYSGPNCDLQLDNCSPNPCINGGSCQPSGKCICPAGFSGTRCETNIDDCLGHQCENGGTCIDMVNQYRCQCVPGFHGTHCSSKVDLCLIRPCANGGTCLNLNNDYQCTCRAGFTGKDCSVDIDECSSGPCHNGGTCMNRVNSFECVCANGFRGKQCDE

Kd (N11-14:V5:His [2]): 2.77 nM | Kd (N11-20:V5:His [4]): 2.79 nM
B7: N21-25:Fc (Fc fusion)
chain: ETNIDDCVTNPCGNGGTCIDKVNGYKCVCKVPFTGRDCESKMDPCASNRCKNEAKCTPSSNFLDFSCTCKLGYTGRYCDEDIDECSLSSPCRNGASCLNVPGSYRCLCTKGYEGRDCAINTDDCASFPCQNGGTCLDGIGDYSCLCVDGFDGKHCETDINECLSQPCQNGATCSQYVNSYTCTCPLGFSGINCQTNDED

binding result (N21-30:Fc [12]): binds | binding result (N21-30:V5:His): binds
B8: N11-20:V5:His (domain or fragment, Drosophila, UniProt P07207 447-832, looked up)
chain: T3 chain
notes: also called EGF repeats 11-20 of the N extracellular domain; source: Drosophila Schneider cells, transfected, secreted; purified from conditioned medium (ProBond resin)
